The term EC50 denotes the concentration needed to bring the measured effect to its halfway point.

One assay addresses T1, TP-24 peptide (human, also: biotinylated, site not given here).
T1 construct: 15-mer of human TDP-43 from the library spanning aa 199-285; captured on streptavidin plates
T1 peptide: REFFSQYGDVMDVFI
As to the kind of experiment: indirect ELISA, biotinylated 15-mer peptide on streptavidin plate, hybridoma supernatant. The protocol: (§1) Serum-free supernatants were harvested from stable hybridomas. The supernatants containing antibodies of interest were then screened by an indirect ELISA assay to determine epitopes. Epitopes were mapped using a library of TDP-43 15-mer peptides. Briefly, 96-well streptavidin-coated 96-well ELISA plates were incubated with 5 μg/mL of biotinylated 15-mer peptides spanning the amino acids (aa) 199-285 of human TDP-43 with 9 aa offset and 6 aa overlap. Plates were washed thoroughly with 0.05% Tween-20/PBS and then blocked with 1% bovine serum albumin (BSA) in 0.05% Tween-20/PBS for 1 hour at 37° C. The antibody contained in the hybridoma supernatant was then added at the indicated dilutions, and incubated for 2 hours at 37° C. after which the plates were washed as described previously. An AP-conjugated anti-mouse IgG secondary antibody (Jackson ImmunoResearch Laboratories, United Kingdom) was added at 1/1000 dilution in 0.05% Tween-20/PBS for 1 hour at 37° C. After the final wash, plates were incubated with pNPP (Sigma-Aldrich, Switzerland) an AP substrate solution, and read at 405 nm using an ELISA plate reader (Tecan).
On the technique in general: An ELISA detects its analyte on a solid surface through an enzyme-linked reagent.

Another assay addresses T2, TP-25 peptide (human, also: biotinylated, site not given here).
T2 construct: 15-mer of human TDP-43 from the library spanning aa 199-285; captured on streptavidin plates
T2 peptide: VMDVFIPKPFRAFAF
The assay is described as above. The protocol: as §1

For a further assay, the target named is T3, TP-29 (also: biotinylated, site not given here).
T3 construct: also called TP-29 peptide
T3 peptide: ISVHISNAEPKHNSN
The assay can be described thus: indirect ELISA, biotinylated 15-mer on streptavidin plate, hybridoma supernatant. The protocol: as §1

Another assay addresses T4, TP-30 (also: biotinylated, site not given here).
T4 construct: also called TP-30 peptide
T4 peptide: PKHNSNRQLERSGRF
The description is as above. The protocol: as §1

For another assay, the target named is T5, TP-31 (also: biotinylated, site not given here).
T5 construct: also called TP-31 peptide
T5 peptide: ERSGRFGGNPGGFGN
Described as above. As to the method: as §1

Another assay addresses T6, TP-27 (also: biotinylated, site not given here).
T6 construct: also called TP-27 peptide
T6 peptide: ADDQIAQSLCGEDLI
The description is as above. As to the method:
as §1

In another assay the target is T7, TP-26 (also: biotinylated, site not given here).
T7 construct: also called TP-26 peptide
T7 peptide: FRAFAFVTFADDQIA
Described as above. The protocol: as §1

Another assay deals with T8, BSA (bovine, UniProt P02769).
T8 construct: not specified; also called bovine serum albumin
T8 sequence (P02769 25-607 limits assumed): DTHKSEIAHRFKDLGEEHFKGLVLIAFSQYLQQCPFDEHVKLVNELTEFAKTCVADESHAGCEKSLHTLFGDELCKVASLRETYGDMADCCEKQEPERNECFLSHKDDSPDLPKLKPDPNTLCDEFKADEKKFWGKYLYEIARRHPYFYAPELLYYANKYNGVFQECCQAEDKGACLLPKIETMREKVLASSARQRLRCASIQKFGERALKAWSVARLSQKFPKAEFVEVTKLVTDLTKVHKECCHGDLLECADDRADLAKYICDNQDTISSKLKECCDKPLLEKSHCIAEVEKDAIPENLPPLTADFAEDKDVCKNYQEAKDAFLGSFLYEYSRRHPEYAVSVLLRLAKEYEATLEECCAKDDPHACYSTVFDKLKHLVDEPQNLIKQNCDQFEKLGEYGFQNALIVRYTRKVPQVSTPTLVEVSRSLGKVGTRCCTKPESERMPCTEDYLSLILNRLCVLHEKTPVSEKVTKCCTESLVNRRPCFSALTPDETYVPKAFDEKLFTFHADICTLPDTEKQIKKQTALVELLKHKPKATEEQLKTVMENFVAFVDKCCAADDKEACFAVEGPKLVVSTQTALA
As to the kind of experiment: indirect ELISA, control coat in the 15-mer series, hybridoma supernatant.

A further assay has as its target T9, TDP-1 peptide (human).
T9 construct: Immunogen peptide; conjugated to Luminex beads in the assay; also called TDP-43 aa 212-272
T9 peptide: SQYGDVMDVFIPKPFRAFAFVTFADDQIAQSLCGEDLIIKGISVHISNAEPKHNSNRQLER
The assay can be described thus: Luminex bead assay, antibody serial dilution, TDP-1 peptide beads.

The target in assay [1] is T10, TDP-3 peptide (human).
T10 construct: Irrelevant control peptide; conjugated to Luminex beads in the assay; also called TDP-43 aa 310-370; irrelevant target
T10 peptide: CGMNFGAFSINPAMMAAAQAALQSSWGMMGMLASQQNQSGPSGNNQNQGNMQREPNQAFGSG
The assay can be described thus: Luminex bead assay, serial dilution of the antibody, MFI.

For another assay, the target named is T11, TP-28 (also: biotinylated, site not given here).
T11 construct: also called TP-28 peptide
T11 peptide: CGEDLIIKGISVHIS
As to the kind of experiment: indirect ELISA, biotinylated 15-mer on streptavidin plate, hybridoma supernatant. The protocol:
as §1

The target of the next assay is T12, TDP-215 peptide (human).
T12 construct: same ELISA method as for the biotinylated 15-mers
T12 peptide: GDVMDVFI
The assay can be described thus: indirect ELISA, 8-mer peptide library, OD 405 nm. As to the method:
as §1
(§2) Furthermore, antibodies were tested using an indirect ELISA on a peptide library of 8-mer peptides with 7 aa overlap covering the sequence of human TDP-43 from aa 210 to aa 231, using the same ELISA method as describe previously in this section.

In a further assay the target is T13, TDP-219 peptide (human).
T13 construct: 8-mer of human TDP-43; same ELISA method as for the biotinylated 15-mers
T13 peptide: DVFIPKPF
As to the kind of experiment: indirect ELISA, 8-mer peptide library. The protocol: as §1, §2

The next assay has as its target T14, TDP-220 peptide (human).
T14 construct: 8-mer of human TDP-43; same ELISA method as for the biotinylated 15-mers
T14 peptide: VFIPKPFR
As to the kind of experiment: indirect ELISA, 8-mer peptide library. As to the method:
as §1, §2

For another assay, the target named is T15, TDP-223 peptide (human).
T15 construct: 8-mer of human TDP-43; same ELISA method as for the biotinylated 15-mers
T15 peptide: PKPFRAFA
As to the kind of experiment: indirect ELISA, 8-mer peptide library. As to the method:
as §1, §2

Another assay concerns the target T16, TDP-213 peptide (human).
T16 construct: 8-mer of human TDP-43; same ELISA method as for the biotinylated 15-mers
T16 peptide: QYGDVMDV
The assay can be described thus: indirect ELISA, 8-mer peptide library. The protocol:
as §1, §2

In another assay the target is T17, TDP-210 peptide (human).
T17 construct: 8-mer of human TDP-43; same ELISA method as for the biotinylated 15-mers
T17 peptide: FFSQYGDV
The assay can be described thus: indirect ELISA, 8-mer peptide library. The protocol:
as §1, §2

Another assay has as its target T18, TDP-224 peptide (human).
T18 construct: 8-mer of human TDP-43; same ELISA method as for the biotinylated 15-mers
T18 peptide: KPFRAFAF
The assay can be described thus: indirect ELISA, 8-mer peptide library. The protocol:
as §1, §2

The next assay concerns the target T19, TDP-211 peptide (human).
T19 construct: 8-mer of human TDP-43; same ELISA method as for the biotinylated 15-mers
T19 peptide: FSQYGDVM
As to the kind of experiment: indirect ELISA, 8-mer peptide library. The protocol: as §1, §2

The next assay deals with T20, TDP-214 peptide (human).
T20 construct: 8-mer of human TDP-43; same ELISA method as for the biotinylated 15-mers
T20 peptide: YGDVMDVF
The assay can be described thus: indirect ELISA, 8-mer peptide library. As to the method:
as §1, §2

For a further assay, the target named is T21, TDP-217 peptide (human).
T21 construct: 8-mer of human TDP-43; same ELISA method as for the biotinylated 15-mers
T21 peptide: VMDVFIPK
As to the kind of experiment: indirect ELISA, 8-mer peptide library. The protocol:
as §1, §2

The next assay has as its target T22, TDP-212 peptide (human).
T22 construct: 8-mer of human TDP-43; same ELISA method as for the biotinylated 15-mers
T22 peptide: SQYGDVMD
The assay can be described thus: indirect ELISA, 8-mer peptide library. The protocol:
as §1, §2

The next assay deals with T23, TDP-221 peptide (human).
T23 construct: 8-mer of human TDP-43; same ELISA method as for the biotinylated 15-mers
T23 peptide: FIPKPFRA
The assay can be described thus: indirect ELISA, 8-mer peptide library. As to the method: as §1, §2

Another assay has as its target T24, TDP-218 peptide (human).
T24 construct: 8-mer of human TDP-43; same ELISA method as for the biotinylated 15-mers
T24 peptide: MDVFIPKP
The assay can be described thus: indirect ELISA, 8-mer peptide library. As to the method: as §1, §2

The next assay has as its target T25, TDP-222 peptide (human).
T25 construct: 8-mer of human TDP-43; same ELISA method as for the biotinylated 15-mers
T25 peptide: IPKPFRAF
As to the kind of experiment: indirect ELISA, 8-mer peptide library. As to the method:
as §1, §2

Assay [2] deals with T26, recombinant human full-length TDP-43 (human, UniProt Q13148 1-414).
T26 construct: Recombinant full-length protein; also called FL TDP-43; recFL TDP-43
T26 sequence (Q13148 whole entry): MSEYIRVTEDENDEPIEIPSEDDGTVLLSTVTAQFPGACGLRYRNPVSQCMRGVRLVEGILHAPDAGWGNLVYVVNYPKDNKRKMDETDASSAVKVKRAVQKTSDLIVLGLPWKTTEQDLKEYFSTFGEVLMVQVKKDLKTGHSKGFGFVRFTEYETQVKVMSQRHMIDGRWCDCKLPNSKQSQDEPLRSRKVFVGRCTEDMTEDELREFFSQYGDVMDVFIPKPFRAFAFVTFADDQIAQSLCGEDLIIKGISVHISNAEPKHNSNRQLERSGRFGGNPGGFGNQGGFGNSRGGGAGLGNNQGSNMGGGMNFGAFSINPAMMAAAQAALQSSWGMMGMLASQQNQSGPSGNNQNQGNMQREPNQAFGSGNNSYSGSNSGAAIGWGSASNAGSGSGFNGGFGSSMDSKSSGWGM
The assay can be described thus: Luminex bead assay, antibody serial dilution, FL TDP-43 beads.

For assay [3], the target named is T10, TDP-3 peptide. The assay can be described thus: Luminex bead assay, TDP-3 peptide beads (irrelevant target).
In assay [4] the target is T26, recombinant human full-length TDP-43. As to the kind of experiment: SPR avidity (Biacore T200), TDP-43 monomer immobilised, antibody as analyte, 1:1 model. As to the method: Avidity measurements were performed on an SPR instrument (Biacore T200, GE Healthcare Life Sciences) using CM5 Series S sensor chips. Recombinant human FL TDP-43 monomers or aggregated recombinant human FL TDP-43 was immobilized on a CM5 chip using amine coupling, injecting at a flow rate of 5 μl/min for 420 seconds. Conditions were optimized so that less than 200 RU protein was immobilized. Binding of the antibodies and the control antibody (2E2-D3) were obtained by injecting at: 1.37, 4.11, 12.33, 37, 111, and 333 nM in 1×PBS P+ at a flow rate of 50 μl/min for 90 s contact time and 600 s dissociation phase, with three regeneration cycles of the ligand surface by 10 mM Glycine-HCl (pH 1.7). Kinetics were analyzed using a 1:1 fitting model (see FIG. 8).
In general terms: In SPR one partner is held on a chip, and binding of the other changes the refractive index at the surface.

Where no end group is shown, it is not given here.

B1: ACI-7062-404D6-Ab2 (antibody, IgG3, V domains shown)
VH: QVTLKESGPGILQPSQTLSLTCSFSGFSLSTYGIGVGWIRQPSGKGLEWLAHIWWNDYKYYNTALKSRLTISKDTSNNRVFLKIASVDTADTATYYCARVYGNLYYFDYWGQGTTLTVSS
VL: DVLMTQTPLSLPVSLGDQASISCRSSQSIVHGSGNTYLEWYLQKPGQSPKLLIYKVSNRFSGVPDRFSGSGSGTDFTLRISRVEAEDLGVYYCFQGSHVPTFGAGTKLELKR
notes: also called 404D6E11; clone 4
As for B1, the OD was 4 O.D. (405 nm) with TP-24 peptide and 0.9 O.D. (405 nm) with TP-25 peptide. The binding result with TP-29, with TP-30, in the assay with TP-31, with TP-27, in the assay with TP-26 and with BSA was “no binding” each time. The binding result with TDP-3 peptide [1] was “no binding (tested: about 20000 pM)”. The molecule further showed an EC50 with TDP-1 peptide of under 0.01 nM.

B2: ACI-7062-401A2-Ab2 (antibody, IgG1, V domains shown)
VH: DVQLVESGGGLVQPGGSRRLSCAASGFTFSRFGMHWVRQAPEKGLEWVAYIRSGSDIIYYADSVKGRFTISRDNPENTLFLQMTSLRSEDTAMYYCARSGTTVPFDYWGQGTSLTVSS
VL: DIVMTQSPSSLAMSVGQKVTMSCKSSQSLLNSGDQKNYLAWYQQKPGQSPELLLYFASTRASGVPDRFIGSGSGTDFSLTISSVQAEDLADYFCQQHYSIPLTFGAGTKLELKR
notes: also called 401A2C6; clone 2
On to B2, for which the values for the OD in the assay with TP-24 peptide and in the assay with TP-25 peptide were 2.5 O.D. (405 nm) and 1 O.D. (405 nm), respectively. Moreover, the binding result with TP-29, with TP-28, in the assay with TP-30, in the assay with TP-31, with TP-27 and in the assay with TP-26 was “no binding” in each case. Further, the binding result is on record as “no binding” with BSA; “binds” with TDP-215 peptide; “no binding” in the assay with TDP-219 peptide; “no binding” with TDP-220 peptide; “no binding” with TDP-223 peptide; “no binding” with TDP-213 peptide. In addition, the binding result with TDP-210 peptide, in the assay with TDP-224 peptide, with TDP-211 peptide, with TDP-214 peptide, with TDP-217 peptide and with TDP-212 peptide was “no binding” throughout. Moreover, the binding result is listed as “no binding” with TDP-221 peptide, “no binding” in the assay with TDP-218 peptide, “no binding” in the assay with TDP-222 peptide and “no binding (tested: about 20000 pM)” with TDP-3 peptide [1]. Besides, in the assay with TDP-1 peptide, the EC50 is under 0.01 nM.

B3: ACI-7062-415H10-Ab2 (antibody, IgG3, V domains shown)
VH: DVQLVESGGGLVQPGGSRKLSCAASGFTFSSFGMHWVRQAPEKGLEWVAYISSGSSNIYYTDTVKGRFTISRDNPKNTLFLQMTSLRSEDTAIYYCARSGTTVPFDYWGQGTTLTVSS
VL: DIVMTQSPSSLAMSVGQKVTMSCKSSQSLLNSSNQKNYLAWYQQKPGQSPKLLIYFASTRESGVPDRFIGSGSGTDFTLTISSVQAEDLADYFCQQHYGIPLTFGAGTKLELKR
notes: also called 415H10B7; clone 17
For the molecule B3, the EC50 in assay [2] was 0.16 nM; in the assay with TDP-1 peptide, under 0.01 nM. Moreover, the binding result with TDP-3 peptide [3], with TP-29, in the assay with TP-28, with TP-30, with TP-31 and with TP-27 was “no binding” each time. Besides, the binding result with TP-26 and in the assay with BSA was “no binding” in each case. For the same molecule, the Kd in assay [4] amounted to 1.1 nM. Moreover, the OD with TP-24 peptide was 3.9 O.D. (405 nm); in the assay with TP-25 peptide, 1.2 O.D. (405 nm).

The values are drawn from patent US20220025023A1 (AC IMMUNE, published 2022).
